Patent publication US11203773B2, “Designer ribosomes and methods of use thereof for incorporating non-standard amino acids into polypeptides” (Yale University, priority 2016, dated 2021)

Legend:
N[C@@H](CCC(=O)O)C(=O)O [1] = experiment: Aminoacylation of 32P-tRNA with α- and β3-amino acids; assay type: biochemical, E. coli; conditions: other: aminoacylation, GluRS
N[C@@H](CCC(=O)O)C(=O)O [2] = experiment: purified protein, by the assay type; conditions: other: adenylation, GluRS; pH 7.0; 25.0 °C
Procedure: Adenylation of α- and β-Amino Acids Catalyzed by E. coli PheRS, GlyRS, MetRS, and GluRS. […] Briefly, assay mixtures (50 μL) assembled at 25° C. contained the requisite α- or β^3-amino acid substrate (between 5 μM and 5 mM) in 100 mM HEPES (pH 7.0) containing 100 mM KCl, 15 mM MgCl2, 2 mM ATP, 0.5 mM NaPPi, and 50 μCi [^32P]-NaPPi). Reactions were initiated upon addition of enzyme (10 nM MetRS, 10 nM PheRS, or 50 nM GlyRS; 100 nM GluRS for reactions with α-Glu or 1.13 μM GluRS for reactions with β^3-Glu), incubated for various times (10 sec to 10 min), and halted by adding a 5 μL reaction aliquot to 100 μL quenching solution (10% charcoal, 0.5% HCl). 50 μL of 200 mM NaPPi in 1.5 N HCl was then added to each quenched reaction to decrease nonspecific binding of pyrophosphate to the charcoal. Each quenched reaction was then filtered through Whatman filter paper (number 3), previously washed with washing solution (200 mM NaPPi in 1 N HCl) using a 96-well BIO-DOT® apparatus (BioRad). Each well of the apparatus was then washed four times with 200 μL aliquots of washing solution (by pipetting washing solution up and down at least 10 times per wash) to minimize nonspecific binding of pyrophosphate to charcoal. Each experimental well was paired with an analogous control well (no-enzyme control) that lacked enzyme; a single membrane contained time points for both α- and β^3-amino acid substrates and all no-enzyme controls. The membrane was allowed to dry and was protected with a sheet of Microseal B adhesive seals (Biorad) prior to exposure to a BAS Storage Phosphor screen. Screens were imaged on a Typhoon 9500FLA biomolecule imager and the signal intensity of each dot was quantified using ImageJ to determine the relative amount of [^32P]-ATP formed as a function of time (Ctime). Each raw value were corrected by subtracting the intensity of the dot corresponding to the appropriate no-enzyme control (Cblank) and the resulting corrected values of Ccorr (representing the relative amounts of ^32P-ATP formed) were plotted as a function of time to determine values of relative ^32P-ATP formed per minute. Those values were divided by the concentration of enzyme used, and the data was plotted as relative specific activity (^32P-ATP formed min^−1×μM^−1 enzyme) and fitted using Prism by performing nonlinear regression using the least squares method and Equation 1 to obtain RSA (relative specific activity) and KM values (Equation 1 and Table 2).
In Equation 1, v is the apparent relative specific activity (relative ^32P-ATP formed per minute) obtained at each substrate concentration divided by the enzyme concentration, RSA is the relative specific activity, S is the concentration of substrate, and KM is the Michaelis-Menten constant.

E. coli GluRS (Escherichia coli K-12)
Km (N[C@@H](CCC(=O)O)C(=O)O [1]): 277.1 ± 101.5 µM | kcat (N[C@@H](CCC(=O)O)C(=O)O [1]): 0.000767 ± 6.67e-05 s⁻¹ | kcat/Km (N[C@@H](CCC(=O)O)C(=O)O [1]): 2.67 ± 1 M⁻¹ s⁻¹ | Km (N[C@@H](CCC(=O)O)C(=O)O [2]): 76.4 ± 43.0 µM | kcat (N[C@@H](CCC(=O)O)C(=O)O [2]): 22.5 ± 3.43 s⁻¹ | kcat/Km (N[C@@H](CCC(=O)O)C(=O)O [2]): 293000 ± 172000 M⁻¹ s⁻¹
